In patent publication US20180328920A1 (Hoffmann-La Roche, published 2018):

Assays:
[1] = molecular target: T1, Tim3-CLIP (human Tim3 extracellular domain - CLIP tag - Tim3 transmembrane region - Flag tag, on HEK293 cells) (human, CLIP tag labelled with CLIP-Red (FRET acceptor dye)); assay: cell-based TR-FRET (Tag-lite) on HEK293 cells co-expressing PD1-SNAP and Tim3-CLIP; signal needs simultaneous binding of both
T1 construct: also called Tim3 receptor on PD1+Tim3+ HEK cells

[2] = molecular target: T2, PD1-SNAP (human PD1 extracellular domain - SNAP tag - PD1 transmembrane region - Flag tag, on HEK293 cells) (human, SNAP tag labelled with SNAP-Lumi4-Tb (FRET donor dye)); assay: as above
T2 construct: also called PD1 receptor on PD1+Tim3+ HEK cells

[3] = molecular target: T1, Tim3-CLIP (human Tim3 extracellular …); assay: cell-based TR-FRET on PD1-SNAP/Tim3-CLIP HEK293 cells (FIG. 5)
Procedure: Transfected cells were sedimented and resuspended at a density of 1×10⁶ cells/ml in tag-Lite® buffer (Cisbio). Thereafter, cells were stained with 100 nM SNAP-Lumi4-Tb (Cisbio) and 100 nM CLIP-Red (Cisbio) for one hour at 37° C. in tag-Lite® buffer (Cisbio). After washing and re-suspending in PBS buffer comprising 2% FCS (v/v), about 50.000 cells (in 50 μl volume) were seeded into 96-well flat-bottom white plates (Costar) bevor either control antibody (e.g. a bivalent, monospecific antibody or an isotype control) or bispecific antibody was added to the cells at a final concentration of 0.001-10 nM. After an incubation for one hour at 4° C. or room temperature, time-resolved fluorescence was measured as ratio of the emission signal at 665 nm and 620 nm (665/620 nm ratio) with a BMG Pherastar reader or Tecan Infinite M1000 Pro using standard settings provided by the respective vendor.

[4] = molecular target: T1, Tim3-CLIP (human Tim3 extracellular …); assay: cell-based TR-FRET on PD1-SNAP/Tim3-CLIP HEK293 cells, antibody at 0.01-40 nM, 1 h at 4 C (FIG. 6, diamond)
Procedure: (§1) Transfected cells were sedimented and resuspended at a density of 1×10⁶ cells/ml in tag-Lite® buffer (Cisbio). Thereafter, cells were stained with 100 nM SNAP-Lumi4-Tb (Cisbio) and 100 nM CLIP-Red (Cisbio) for one hour at 37° C. in tag-Lite® buffer (Cisbio). […] After an incubation for one hour at 4° C. or room temperature, time-resolved fluorescence was measured as ratio of the emission signal at 665 nm and 620 nm (665/620 nm ratio) with a BMG Pherastar reader or Tecan Infinite M1000 Pro using standard settings provided by the respective vendor.
(§2) To show the specificity of the FRET signal induced by simultaneous binding of the bispecific antibody, monoclonal IgGs of only one specificity were added for competition. Therefore, PD1 and Tim3 expressing HEK cells as described before were labelled with 100 nM SNAP-Lumi4-Tb and 100 nM CLIP-Red. […] A FRET signal was detected. To underline the specificity of FRET signal after bispecific antibody treatment, a monospecific, bivalent anti-PD1 monoclonal antibody was tested alone (FIG. 6, triangle). No FRET signal was detected. If the monospecific, bivalent anti-PD1 monoclonal antibody and the bispecific anti-PD1/Tim3 antibody were present (80 nM monospecific antibody concentration) no FRET signal was detected (FIG. 6, squares). Likewise no FRET signal was obtained if a bivalent, monospecific anti-Tim3 antibody was added (see FIG. 7).

[5] = molecular target: T2, PD1-SNAP (human PD1 extracellular …); assay: as above
Procedure: as §1, §2

Binder	binding result [1]	binding result [2]	also measured
PD1-Tim3-0476 (bispecific antibody) heavy 1: not shown heavy 2: EVQLVESGGGLVQPGGSLRLSCAASGFNIKTTYMHWVRQAPGKGLEWVGRIDPADDNTKYAPKFQGKATISADTSKNTAYLQMNSLRAEDTAVYYCVRDFGYVAWFAYWGQGTLVTVSSASTKGPSVFPLAPSSKSTSGGTAALGCLVEDYFPEPVTVSWNSGALTSGVHTFPAVLQSSGLYSLSSVVTVPSSSLGTQTYICNVNHKPSNTKVDEKVEPKSCDKTHTCPPCPAPEAAGGPSVFLFPPKPKDTLMISRTPEVTCVVVDVSHEDPEVKFNWYVDGVEVHNAKTKPREEQYNSTYRVVSVLTVLHQDWLNGKEYKCKVSNKALGAPIEKTISKAKGQPREPQVCTLPPSRDELTKNQVSLSCAVKGFYPSDIAVEWESNGQPENNYKTTPPVLDSDGSFFLVSKLTVDKSRWQQGNVFSCSVMHEALHNHYTQKSLSLSPGK light 1: EVQLLESGGGLVQPGGSLRLSCAASGFSFSSYTMSWVRQAPGKGLEWVATISGGGRDIYYPDSVKGRFTISRDNSKNTLYLQMNSLRAEDTAVYYCVLLTGRVYFALDSWGQGTLVTVSSASVAAPSVFIFPPSDEQLKSGTASVVCLLNNFYPREAKVQWKVDNALQSGNSQESVTEQDSKDSTYSLSSTLTLSKADYEKHKVYACEVTHQGLSSPVTKSFNRGEC light 2: DIVMTQSPLSLPVTPGEPASISCRASQSVDNYVAWYLQKPGQSPQLLIYYASNRYIGVPDRFSGSGSGTDFTLKISRVEAEDVGVYYCQQHYSSPYTFGQGTKVEIKRTVAAPSVFIFPPSDRKLKSGTASVVCLLNNFYPREAKVQWKVDNALQSGNSQESVTEQDSKDSTYSLSSTLTLSKADYEKHKVYACEVTHQGLSSPVTKSFNRGEC	binds	–	–
PD1-Tim3-0477 (bispecific antibody) heavy 1: not shown heavy 2: QITLKESGPTLVKPTQTLTLTCTFSGFSLSTSGMSVGWIRQPPGKGLEWLAHIWLNDDVFFNPALKSRLTITKDTSKNQVVLTMTNMDPVDTATYYCVRANGYLYALDYWGQGTLVTVSSASTKGPSVFPLAPSSKSTSGGTAALGCLVEDYFPEPVTVSWNSGALTSGVHTFPAVLQSSGLYSLSSVVTVPSSSLGTQTYICNVNHKPSNTKVDEKVEPKSCDKTHTCPPCPAPEAAGGPSVFLFPPKPKDTLMISRTPEVTCVVVDVSHEDPEVKFNWYVDGVEVHNAKTKPREEQYNSTYRVVSVLTVLHQDWLNGKEYKCKVSNKALGAPIEKTISKAKGQPREPQVCTLPPSRDELTKNQVSLSCAVKGFYPSDIAVEWESNGQPENNYKTTPPVLDSDGSFFLVSKLTVDKSRWQQGNVFSCSVMHEALHNHYTQKSLSLSPGK light 1: EVQLLESGGGLVQPGGSLRLSCAASGFSFSSYTMSWVRQAPGKGLEWVATISGGGRDIYYPDSVKGRFTISRDNSKNTLYLQMNSLRAEDTAVYYCVLLTGRVYFALDSWGQGTLVTVSSASVAAPSVFIFPPSDEQLKSGTASVVCLLNNFYPREAKVQWKVDNALQSGNSQESVTEQDSKDSTYSLSSTLTLSKADYEKHKVYACEVTHQGLSSPVTKSFNRGEC light 2: DIQLTQSPSFLSASVGDRVTITCSASSSVSYTQWYQQKPGKAPKLWIYDAFKLAPGVPSRFSGSGSGTEFTLTISSLQPEDFATYFCHQWSSYPWTFGQGTKLEIKRTVAAPSVFIFPPSDRKLKSGTASVVCLLNNFYPREAKVQWKVDNALQSGNSQESVTEQDSKDSTYSLSSTLTLSKADYEKHKVYACEVTHQGLSSPVTKSFNRGEC	binds	–	–
PD1-Tim3-0389 (bispecific antibody, human IgG1, kappa, L234A L235A, also called bispecific anti-PD1/Tim3 antibody) heavy 1: not shown heavy 2: EVQLQQSVAELVRPGASVKLSCTASGFNIKTTYMHWVKQRPEQGLEWIGRIDPADDNTKYAPKFQGKATITADTSSNTAYLQLSSLTSEDAAIYYCVRDFGYVAWFAYWGQGTLVTFSAASTKGPSVFPLAPSSKSTSGGTAALGCLVEDYFPEPVTVSWNSGALTSGVHTFPAVLQSSGLYSLSSVVTVPSSSLGTQTYICNVNHKPSNTKVDEKVEPKSCDKTHTCPPCPAPEAAGGPSVFLFPPKPKDTLMISRTPEVTCVVVDVSHEDPEVKFNWYVDGVEVHNAKTKPREEQYNSTYRVVSVLTVLHQDWLNGKEYKCKVSNKALGAPIEKTISKAKGQPREPQVCTLPPSRDELTKNQVSLSCAVKGFYPSDIAVEWESNGQPENNYKTTPPVLDSDGSFFLVSKLTVDKSRWQQGNVFSCSVMHEALHNRFTQKSLSLSPGK light 1: EVILVESGGGLVKPGGSLKLSCAASGFSFSSYTMSWVRQTPEKRLDWVATISGGGRDIYYPDSVKGRFTISRDNAKNTLYLEMSSLMSEDTALYYCVLLTGRVYFALDSWGQGTSVTVSSASVAAPSVFIFPPSDEQLKSGTASVVCLLNNFYPREAKVQWKVDNALQSGNSQESVTEQDSKDSTYSLSSTLTLSKADYEKHKVYACEVTHQGLSSPVTKSFNRGEC light 2: NIVMTPTPKFLPVSSGDRVTMTCRASQSVDNYVAWYQQKPGQSPKLLIYYASNRYIGVPDRFTGSGSGTDFTFTISSVQVEDLAVYFCQQHYSSPYTFGSGTKLEIKRTVAAPSVFIFPPSDRKLKSGTASVVCLLNNFYPREAKVQWKVDNALQSGNSQESVTEQDSKDSTYSLSSTLTLSKADYEKHKVYACEVTHQGLSSPVTKSFNRGEC	–	binds	binding result [3]: binds
PD1-Tim3-0359 (bispecific antibody, human IgG1, kappa, L234A L235A, also called 2+2 format bispecific antibody PD1-Tim3-0359) heavy: not shown light 1: QIVLTQSPAIMSASPGQKVTITCSASSSVNYTQWYQQKLGSSPKLWIYDAFKLAPGVPARFSGSGTGTSYSLTISSMEAEDAASYFCHQWSSYPWTFGGGTKLEIKRTVAAPSVFIFPPSDRKLKSGTASVVCLLNNFYPREAKVQWKVDNALQSGNSQESVTEQDSKDSTYSLSSTLTLSKADYEKHKVYACEVTHQGLSSPVTKSFNRGEC light 2: EVILVESGGGLVKPGGSLKLSCAASGFSFSSYTMSWVRQTPEKRLDWVATISGGGRDIYYPDSVKGRFTISRDNAKNTLYLEMSSLMSEDTALYYCVLLTGRVYFALDSWGQGTSVTVSSASVAAPSVFIFPPSDEQLKSGTASVVCLLNNFYPREAKVQWKVDNALQSGNSQESVTEQDSKDSTYSLSSTLTLSKADYEKHKVYACEVTHQGLSSPVTKSFNRGEC	binds	binds	–
PD1-Tim3-0168 (bispecific antibody, human IgG1, kappa, L234A L235A) heavy 1: not shown heavy 2: QVTLKESGPGILQPSQTLSLTCSFSGFSLSTSGMSVGWIRQPSGKGLEWLAHIWLNDDVFFNPALKRRLTISKDTSNNQVFLQIASVVTADTATYYCVRANGYLYALDYWGQGISVTVSSASTKGPSVFPLAPSSKSTSGGTAALGCLVEDYFPEPVTVSWNSGALTSGVHTFPAVLQSSGLYSLSSVVTVPSSSLGTQTYICNVNHKPSNTKVDEKVEPKSCDKTHTCPPCPAPEAAGGPSVFLFPPKPKDTLMISRTPEVTCVVVDVSHEDPEVKFNWYVDGVEVHNAKTKPREEQYNSTYRVVSVLTVLHQDWLNGKEYKCKVSNKALGAPIEKTISKAKGQPREPQVCTLPPSRDELTKNQVSLSCAVKGFYPSDIAVEWESNGQPENNYKTTPPVLDSDGSFFLVSKLTVDKSRWQQGNVFSCSVMHEALHNRFTQKSLSLSPGK light 1: EVILVESGGGLVKPGGSLKLSCAASGFSFSSYTMSWVRQTPEKRLDWVATISGGGRDIYYPDSVKGRFTISRDNAKNTLYLEMSSLMSEDTALYYCVLLTGRVYFALDSWGQGTSVTVSSASVAAPSVFIFPPSDEQLKSGTASVVCLLNNFYPREAKVQWKVDNALQSGNSQESVTEQDSKDSTYSLSSTLTLSKADYEKHKVYACEVTHQGLSSPVTKSFNRGEC light 2: QIVLTQSPAIMSASPGQKVTITCSASSSVNYTQWYQQKLGSSPKLWIYDAFKLAPGVPARFSGSGTGTSYSLTISSMEAEDAASYFCHQWSSYPWTFGGGTKLEIKRTVAAPSVFIFPPSDRKLKSGTASVVCLLNNFYPREAKVQWKVDNALQSGNSQESVTEQDSKDSTYSLSSTLTLSKADYEKHKVYACEVTHQGLSSPVTKSFNRGEC	–	–	binding result [4]: binds; binding result [5]: binds
